Assay results taken from the supplement of paper PMC9112550, “Optimization of the antimicrobial peptide Bac7 by deep mutational scanning” (BMC Biology, 2022).

Tested on: Escherichia coli TOP10
Experiment: shrunken log2 fold change of peptide-encoding DNA abundance (4.5 h post-induction vs induction); higher = less antimicrobial activity (less host growth inhibition)
Details: time post-induction: 4.5 h; library: site-saturation at positions 5, 18, 19, 20
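Further: peptides expressed intracellularly from a pBAD plasmid library in pooled LB shake-flask culture, induced with 0.3% L-arabinose, DNA abundance read by NGS, three biological replicates, DESeq2 with apeglm shrinkage.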

In order of rising “shrunken log2 fold change” value:
1. RRIRLRPPRLPRPRPRPWSYPRP  -1.41
2. RRIRYRPPRLPRPRPRPNHKPRP  -1.3
3. RRIRCRPPRLPRPRPRPYNIPRP  -1.27
4. RRIRIRPPRLPRPRPRPFMTPRP  -1.01
5. RRIRFRPPRLPRPRPRPFKRPRP  -0.813
6. RRIRPRPPRLPRPRPRPMIHPRP  -0.696
7. RRIRNRPPRLPRPRPRPNCIPRP  -0.679
8. RRIRCRPPRLPRPRPRPNTIPRP  -0.553
9. RRIRYRPPRLPRPRPRPMWIPRP  -0.526
10. RRIRSRPPRLPRPRPRPCYGPRP  -0.523
11. RRIRPRPPRLPRPRPRPNYRPRP  -0.451
12. RRIRYRPPRLPRPRPRPNIFPRP  -0.42
13. RRIRYRPPRLPRPRPRPKFVPRP  -0.416
14. RRIRFRPPRLPRPRPRPVIIPRP  -0.415
15. RRIRERPPRLPRPRPRPNAVPRP  -0.407
16. RRIRGRPPRLPRPRPRPFHLPRP  -0.391
17. RRIRERPPRLPRPRPRPQTSPRP  -0.37
18. RRIRFRPPRLPRPRPRPCCRPRP  -0.332
19. RRIRTRPPRLPRPRPRPDVRPRP  -0.31
20. RRIRIRPPRLPRPRPRPWWDPRP  -0.309
21. RRIRDRPPRLPRPRPRPFIRPRP  -0.29
22. RRIRYRPPRLPRPRPRPQTGPRP  -0.288
23. RRIRLRPPRLPRPRPRPSNVPRP  -0.288
24. RRIRLRPPRLPRPRPRPYTEPRP  -0.284
25. RRIRCRPPRLPRPRPRPVFHPRP  -0.262
26. RRIRHRPPRLPRPRPRPWLAPRP  -0.26
27. RRIRIRPPRLPRPRPRPIQYPRP  -0.251
28. RRIRLRPPRLPRPRPRPRHTPRP  -0.236
29. RRIRFRPPRLPRPRPRPTDNPRP  -0.205
30. RRIRIRPPRLPRPRPRPETFPRP  -0.202
31. RRIRHRPPRLPRPRPRPFRPPRP  -0.188
32. RRIRFRPPRLPRPRPRPNACPRP  -0.18
33. RRIRFRPPRLPRPRPRPRKYPRP  -0.177
34. RRIRERPPRLPRPRPRPTMYPRP  -0.162
35. RRIRQRPPRLPRPRPRPQQGPRP  -0.147
36. RRIRTRPPRLPRPRPRPANYPRP  -0.145
37. RRIRCRPPRLPRPRPRPCPNPRP  -0.14
38. RRIRPRPPRLPRPRPRPNCSPRP  -0.132
39. RRIRLRPPRLPRPRPRPRHVPRP  -0.127
40. RRIRCRPPRLPRPRPRPADMPRP  -0.115
41. RRIRKRPPRLPRPRPRPLLLPRP  -0.105
42. RRIRVRPPRLPRPRPRPWDAPRP  -0.0951
43. RRIRLRPPRLPRPRPRPVIEPRP  -0.0888
44. RRIRERPPRLPRPRPRPMNEPRP  -0.0835
45. RRIRLRPPRLPRPRPRPAGYPRP  -0.0817
46. RRIRQRPPRLPRPRPRPESYPRP  -0.0748
47. RRIRQRPPRLPRPRPRPTFPPRP  -0.0691
48. RRIRVRPPRLPRPRPRPFSMPRP  -0.0688
49. RRIRHRPPRLPRPRPRPWWGPRP  -0.0666
50. RRIRSRPPRLPRPRPRPAHQPRP  -0.0659
51. RRIRWRPPRLPRPRPRPSINPRP  -0.0638
52. RRIRTRPPRLPRPRPRPNRDPRP  -0.0614
53. RRIRMRPPRLPRPRPRPIKIPRP  -0.0554
54. RRIRCRPPRLPRPRPRPMKMPRP  -0.0497
55. RRIRERPPRLPRPRPRPMPMPRP  -0.0464
56. RRIRPRPPRLPRPRPRPCWDPRP  -0.0457
57. RRIRYRPPRLPRPRPRPHEWPRP  -0.0416
58. RRIRPRPPRLPRPRPRPNCLPRP  -0.0395
59. RRIRPRPPRLPRPRPRPHRDPRP  -0.0367
60. RRIRVRPPRLPRPRPRPIGTPRP  -0.0334
61. RRIRYRPPRLPRPRPRPNGIPRP  -0.02
62. RRIRLRPPRLPRPRPRPWKHPRP  -0.0177
63. RRIRCRPPRLPRPRPRPMSQPRP  -0.0148
64. RRIRMRPPRLPRPRPRPNLGPRP  -0.0136
65. RRIRFRPPRLPRPRPRPHEKPRP  -0.0136
66. RRIRFRPPRLPRPRPRPDVQPRP  -0.0115
67. RRIRIRPPRLPRPRPRPCDLPRP  -0.011
68. RRIRGRPPRLPRPRPRPYVEPRP  -0.00776
69. RRIRHRPPRLPRPRPRPPALPRP  -0.00181
70. RRIRNRPPRLPRPRPRPCVHPRP  -0.0018
71. RRIRQRPPRLPRPRPRPIGLPRP  -0.00141
72. RRIRTRPPRLPRPRPRPVQCPRP  0.00249
73. RRIRLRPPRLPRPRPRPNWGPRP  0.00356
74. RRIRERPPRLPRPRPRPHCQPRP  0.00361
75. RRIRERPPRLPRPRPRPLCQPRP  0.00385
76. RRIRLRPPRLPRPRPRPACMPRP  0.00459
77. RRIRCRPPRLPRPRPRPAKNPRP  0.00465
78. RRIRDRPPRLPRPRPRPFQCPRP  0.00675
79. RRIRTRPPRLPRPRPRPSCWPRP  0.00851
80. RRIRVRPPRLPRPRPRPCQQPRP  0.00938
81. RRIRPRPPRLPRPRPRPKVCPRP  0.0118
82. RRIRRRPPRLPRPRPRPNGLPRP  0.0125
83. RRIRIRPPRLPRPRPRPWNLPRP  0.0133
84. RRIRWRPPRLPRPRPRPMNCPRP  0.0143
85. RRIRYRPPRLPRPRPRPTVGPRP  0.0163
86. RRIRNRPPRLPRPRPRPIRIPRP  0.0229
87. RRIRWRPPRLPRPRPRPSMSPRP  0.0258
88. RRIRQRPPRLPRPRPRPMRKPRP  0.0266
89. RRIRMRPPRLPRPRPRPMGKPRP  0.0275
90. RRIRARPPRLPRPRPRPDIGPRP  0.0329
91. RRIRARPPRLPRPRPRPEFKPRP  0.0365
92. RRIRNRPPRLPRPRPRPCVDPRP  0.037
93. RRIRDRPPRLPRPRPRPQRHPRP  0.0682
94. RRIRDRPPRLPRPRPRPQVEPRP  0.0699
95. RRIRDRPPRLPRPRPRPWWDPRP  0.083
96. RRIRDRPPRLPRPRPRPSVNPRP  0.0833
97. RRIRTRPPRLPRPRPRPKTTPRP  0.0871
98. RRIRHRPPRLPRPRPRPPRNPRP  0.105
99. RRIRNRPPRLPRPRPRPRPNPRP  0.135
100. RRIRARPPRLPRPRPRPTYFPRP  0.161
101. RRIRGRPPRLPRPRPRPYLGPRP  0.167
102. RRIRDRPPRLPRPRPRPPCPPRP  0.173
103. RRIRVRPPRLPRPRPRPICYPRP  0.19
104. RRIRWRPPRLPRPRPRPGCTPRP  0.194
105. RRIRMRPPRLPRPRPRPMLKPRP  0.197
106. RRIRRRPPRLPRPRPRPFGCPRP  0.222
107. RRIRHRPPRLPRPRPRPPQAPRP  0.236
108. RRIRDRPPRLPRPRPRPRWVPRP  0.263
109. RRIRTRPPRLPRPRPRPERPPRP  0.267
110. RRIRGRPPRLPRPRPRPTECPRP  0.267
111. RRIRGRPPRLPRPRPRPINAPRP  0.288
112. RRIRPRPPRLPRPRPRPEQSPRP  0.289
113. RRIRGRPPRLPRPRPRPPYPPRP  0.291
114. RRIRNRPPRLPRPRPRPRRCPRP  0.291
115. RRIRERPPRLPRPRPRPECEPRP  0.318
116. RRIRNRPPRLPRPRPRPRGHPRP  0.347
117. RRIRDRPPRLPRPRPRPVACPRP  0.35
118. RRIRKRPPRLPRPRPRPSATPRP  0.368
119. RRIRKRPPRLPRPRPRPPGHPRP  0.377
120. RRIRSRPPRLPRPRPRPTPVPRP  0.381
121. RRIRDRPPRLPRPRPRPDEYPRP  0.436
122. RRIRSRPPRLPRPRPRPAQMPRP  0.437
123. RRIRCRPPRLPRPRPRPPFAPRP  0.455
124. RRIRMRPPRLPRPRPRPQENPRP  0.48
125. RRIRARPPRLPRPRPRPKGAPRP  0.514
126. RRIRMRPPRLPRPRPRPGKLPRP  0.515
127. RRIRGRPPRLPRPRPRPIACPRP  0.526
128. RRIRWRPPRLPRPRPRPRSTPRP  0.551
129. RRIRERPPRLPRPRPRPTQGPRP  0.555
130. RRIRKRPPRLPRPRPRPRWSPRP  0.559
131. RRIRFRPPRLPRPRPRPPWPPRP  0.564
132. RRIRARPPRLPRPRPRPTLKPRP  0.605
133. RRIRFRPPRLPRPRPRPGLCPRP  0.606
134. RRIRKRPPRLPRPRPRPGGWPRP  0.62
135. RRIRARPPRLPRPRPRPGLEPRP  0.629
136. RRIRGRPPRLPRPRPRPLLVPRP  0.781
137. RRIRGRPPRLPRPRPRPTHPPRP  0.868
138. RRIRARPPRLPRPRPRPPRVPRP  0.875
139. RRIRWRPPRLPRPRPRPEPDPRP  0.901
140. RRIRGRPPRLPRPRPRPVVQPRP  0.94
141. RRIRKRPPRLPRPRPRPPPQPRP  1.02
142. RRIRRRPPRLPRPRPRPSLCPRP  1.05
143. RRIRGRPPRLPRPRPRPQTRPRP  1.12
144. RRIRGRPPRLPRPRPRPRTPPRP  1.18
145. RRIRARPPRLPRPRPRPEECPRP  1.27
146. RRIRMRPPRLPRPRPRPLEMPRP  1.4
147. RRIRCRPPRLPRPRPRPLFSPRP  2.05
148. RRIRARPPRLPRPRPRPDEDPRP  2.09
149. RRIRTRPPRLPRPRPRPVARPRP  2.14
150. RRIRQRPPRLPRPRPRPRTEPRP  2.94
